Source: US6890900B2, “Methods for treating or preventing diseases of the oral cavity” (Campina B.V., priority 2001, dated 2005)

Assays:
Assay in all cases: LF/GMP assay, viable plate count (pour plate) of broth culture
Format in all cases: cell-based
[1] = test system: Actinobacillus haemophilus ATCC #43717; details: 35° C.; for Colony Counts: viable plate count
Procedure: (§1) Bacterial strains used in this study were Pseudomonas aeruginosa ATCC #27853, Streptococcus mutans ATCC #33535, Streptococcus pyogenes ATCC #19615, and Actinobacillus haemophilus ATCC #43717 and an oral swab from a healthy adult. Bacteria were grown on blood/BHT media (Brain Heart Infusion Agar with protease peptone, sodium chloride, glucose, di-sodium phosphate, and agar, Oxoid, Hampshire England, Sheep's Blood) in the presence of 5% CO2 at 35° C. […] One ml of the appropriate bacterial dilution was taken using a sterile pipette and introduced into 8 ml of sterilized BHI broth. […] By pipette, 9 ml of broth was placed into medium test tubes as means of a control and 8 ml test tubes were prepared for the concentration tests). […] This solution was filtered through a 0.45 μm filter. […] To study the kinetics of LF/GMP binding, each strain of bacteria was taken separately with a sterile pipette and placed into an 8 ml BHI broth test tube, vortexed, and incubated in the presence of 1 ml of LF or GMP for 18-24 hours at 35° C. with 5% CO2. In the combination procedure, 0.5 ml of both LF and […] were taken as 1 ml inoculations. One mL of each bacterial strain, plus one mL of sialic acid solution (1,000 ppm) were inoculated into test tubes filled with 8 mL of BHI broth. Each test tube was vortexed, incubated for 24 hours at 35° C. with 5% CO2, and then pour plated in BHI agar to obtain a plate count. This technique was used to determine the density of living (viable) cells in inoculated broth cultures. It involves plating a bacterial sample and counting the resulting colonies after incubation. A serial dilution of the original broth was taken prior to plating. The serial dilution is necessary to reduce the density of organisms in order to create countable plates. Only plates containing between 25 and 250 colonies are considered countable. Cell densities are traditionally recorded as CFU (colony forming unit)/ml. […] Formula: [formula] The assays required the use of a pour plate technique. The pour plate technique adds a step to the conventional serial dilution. The 1 ml of dilution is added to a warm emulsion of dilute nutrient (BHI) agar to produce an agar overlay in the petri plates. After incubation, the bacterial growth covers the entire plate but individual cellular movement has been restricted by the soft agar overlay. Each colony formed is assumed to have originated from a single CFU. The plates were gently mixed, inverted, and incubated for 18-24 hour at 35° C. Using a control (one broth tube inoculated with a bacterial strain, but no LF), the effectiveness of LF was examined. Each test tube containing a specified amount of LF (50, 100, 250, 500, 1,000 ppm and 3000 ppm) was diluted and plates were poured. […] A. haemophilus, S. mutans, S. pyrogenes and an oral culture were tested at 35° C. Pseudomonas aeruginosa was tested at both room temperature and 35° C. with 5% CO2. This was done because P. aeruginosa is not strictly an oral pathogen. It is commonly found in the environment in various conditions. It can be found in the environment and oral intake can cause inflammation in the oral cavity. Most normal oral bacteria are only found in the mouth and are not taken in from outside factors. Therefore, P. aeruginosa is a threat in both temperature settings. […] (see Table 2).

[2] = test system: Streptococcus mutans ATCC #33535; details: 35° C.; for Colony Counts: viable plate count
Procedure: as §1

[3] = test system: Pseudomonas aeruginosa ATCC #27853; design: key to MIBC: NCF: No Effective Concentration Found; details: for Colony Counts: viable plate count
Procedure: Bacterial strains used in this study were Pseudomonas aeruginosa ATCC #27853, Streptococcus mutans ATCC #33535, Streptococcus pyogenes ATCC #19615, and Actinobacillus haemophilus ATCC #43717 and an oral swab from a healthy adult. Bacteria were grown on blood/BHT media (Brain Heart Infusion Agar with protease peptone, sodium chloride, glucose, di-sodium phosphate, and agar, Oxoid, Hampshire England, Sheep's Blood) in the presence of 5% CO2 at 35° C. Bacteria were harvested by swabbing inoculated growth plates after 24 hours and diluting the colonies in 9 ml of deionized water (DI water) until a suspension of 0.5 McFarland Turbidity Standard was reached using the nephelometer (McFarland Turbidity Meter). The 0.5 McFarland value is approximately equivalent to 1.0×10^8 organisms. One ml of the appropriate bacterial dilution was taken using a sterile pipette and introduced into 8 ml of sterilized BHI broth. (Preparation of BHI broth: 37 g+1,000 ml DI water, Difco Laboratories. By pipette, 9 ml of broth was placed into medium test tubes as means of a control and 8 ml test tubes were prepared for the concentration tests).
This solution was filtered through a 0.45 μm filter. […] Example for calculating 2,500 ppm dilution (1,000 ppm=0.1%): [formula] [formula] [formula] […]
One mL of each bacterial strain, plus one mL of sialic acid solution (1,000 ppm) were inoculated into test tubes filled with 8 mL of BHI broth. Each test tube was vortexed, incubated for 24 hours at 35° C. with 5% CO2, and then pour plated in BHI agar to obtain a plate count.
This technique was used to determine the density of living (viable) cells in inoculated broth cultures. It involves plating a bacterial sample and counting the resulting colonies after incubation. A serial dilution of the original broth was taken prior to plating. The serial dilution is necessary to reduce the density of organisms in order to create countable plates. Only plates containing between 25 and 250 colonies are considered countable. Cell densities are traditionally recorded as CFU (colony forming unit)/ml. By convention, when 1.0 ml is inoculated onto a plate, the dilution factor (DF) is recorded as tenfold greater. Formula: [formula]
The assays required the use of a pour plate technique. The pour plate technique adds a step to the conventional serial dilution. The 1 ml of dilution is added to a warm emulsion of dilute nutrient (BHI) agar to produce an agar overlay in the petri plates. After incubation, the bacterial growth covers the entire plate but individual cellular movement has been restricted by the soft agar overlay. Each colony formed is assumed to have originated from a single CFU. The plates were gently mixed, inverted, and incubated for 18-24 hour at 35° C. […]

[4] = Lactoferrin/GMP 250/0 ppm (LF alone)
[5] = Lactoferrin/GMP 3,000/0 ppm (LF alone)
[6] = Lactoferrin/GMP 3,000/0 ppm (LF alone), listed as Lactoferrin

B1: LF: Bovine lactoferrin, iron-binding glycoprotein purified from milk, provided by DMV International (protein, UniProt P24627 20-708, looked up)
Lactotransferrin: APRKNVRWCTISQPEWFKCRRWQWRMKKLGAPSITCVRRAFALECIRAIAEKKADAVTLDGGMVFEAGRDPYKLRPVAAEIYGTKESPQTHYYAVAVVKKGSNFQLDQLQGRKSCHTGLGRSAGWIIPMGILRPYLSWTESLEPLQGAVAKFFSASCVPCIDRQAYPNLCQLCKGEGENQCACSSREPYFGYSGAFKCLQDGAGDVAFVKETTVFENLPEKADRDQYELLCLNNSRAPVDAFKECHLAQVPSHAVVARSVDGKEDLIWKLLSKAQEKFGKNKSRSFQLFGSPPGQRDLLFKDSALGFLRIPSKVDSALYLGSRYLTTLKNLRETAEEVKARYTRVVWCAVGPEEQKKCQQWSQQSGQNVTCATASTTDDCIVLVLKGEADALNLDGGYIYTAGKCGLVPVLAENRKSSKHSSLDCVLRPTEGYLAVAVVKKANEGLTWNSLKDKKSCHTAVDRTAGWNIPMGLIVNQTGSCAFDEFFSQSCAPGADPKSRLCALCAGDDQGLDKCVPNSKEKYYGYTGAFRCLAEDVGDVAFVKNDTVWENTNGESTADWAKNLNREDFRLLCLDGTRKPVTEAQSCHLAVAPNHAVVSRSDRAAHVKQVLLHQQALFGKNGKNCPDKFCLFKSETKNLLFNDNTECLAKLGGRPTYEEYLGTEYVTAIANLKKCSTSPLLEACAFLTR
Colony Counts ([1]; 50 ppm, 24 h): 2.6 × 10^8 | Colony Counts ([1]; 100 ppm, 24 h): 2.5 × 10^8 | Colony Counts ([1]; 250 ppm, 24 h): 2.5 × 10^8 | Colony Counts ([1]; 500 ppm, 24 h): 2.3 × 10^8 | Colony Counts ([1]; 1,000 ppm, 24 h): 2.4 × 10^8 | Colony Counts ([1]; 3,000 ppm, 24 h): 5.3 × 10^7 | Total Log Reduction [1, 4]: 0 log | Total Log Reduction [1, 5]: one log | Total Log Reduction [1, 6]: 1 log | # Log Reductions ([1]; at the MIBC, vs control): 1 log | MIBC ([1]; single agent, 24 h, 5% CO2): 3,000 ppm | Colony Counts ([2]; 50 ppm, 24 h): 1.9 × 10^8 | Colony Counts ([2]; 100 ppm, 24 h): 1.9 × 10^8 | Colony Counts ([2]; 250 ppm, 24 h): 1.7 × 10^8 | Colony Counts ([2]; 500 ppm, 24 h): 1.4 × 10^8 | Colony Counts ([2]; 1,000 ppm, 24 h): 1.2 × 10^8 | Colony Counts ([2]; 3,000 ppm, 24 h): 5.5 × 10^7 | Total Log Reduction [2, 4]: 0 log | Total Log Reduction [2, 5]: one log | Total Log Reduction [2, 6]: 1 log | # Log Reductions ([2]; at the MIBC, vs control): 1 log | MIBC ([2]; single agent, 24 h, 5% CO2): 3,000 ppm | Colony Counts ([3]; 50 ppm, 35° C., 24 h): 4.6 × 10^8 | Colony Counts ([3]; 100 ppm, 35° C., 24 h): 3.6 × 10^8 | Colony Counts ([3]; 250 ppm, 35° C., 24 h): 2.6 × 10^8 | Colony Counts ([3]; 1,000 ppm, 35° C., 24 h): 3.2 × 10^8 | Colony Counts ([3]; 3,000 ppm, 35° C., 24 h): 1.2 × 10^8 | Total Log Reduction ([3]; Lactoferrin/GMP 250/0 ppm (LF alone), 23° C. (room temperature)): 1 log | Total Log Reduction ([3]; Lactoferrin/GMP 250/0 ppm (LF alone), 35° C.): 0 log | Total Log Reduction ([3]; Lactoferrin/GMP 3,000/0 ppm (LF alone), 23° C. (room temperature)): 0 log | Total Log Reduction ([3]; Lactoferrin/GMP 3,000/0 ppm (LF alone), 35° C.): 0 log | # Log Reductions ([3]; at the MIBC, vs control, 35° C.): 0 log | MIBC ([3]; single agent, 35° C., 24 h, 5% CO2): NCF
